The record followed here is patent US20030157096A1.

Experiment [1] has as its target IL-TIF protein (human) (human) (UniProt Q9GZX6). Put plainly: cell-based or functional assay.
Experiment [2] concerns the target zcytor11 and CRF2-4 receptors co-expressed on transfected BaF3 or BHK cells (human) (UniProt Q08334). Put plainly: cell-based or functional assay.

Chain of IL-TIF protein (human) (human) (Q9GZX6 34-179 limits assumed): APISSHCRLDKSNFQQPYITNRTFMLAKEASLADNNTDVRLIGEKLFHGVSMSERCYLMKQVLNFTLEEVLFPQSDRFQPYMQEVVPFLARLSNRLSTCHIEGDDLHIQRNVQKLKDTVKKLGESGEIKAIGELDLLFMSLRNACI
Chain of CRF2-4/zcytor11-Fc soluble receptor heterodimer (Fc fusion) (chain): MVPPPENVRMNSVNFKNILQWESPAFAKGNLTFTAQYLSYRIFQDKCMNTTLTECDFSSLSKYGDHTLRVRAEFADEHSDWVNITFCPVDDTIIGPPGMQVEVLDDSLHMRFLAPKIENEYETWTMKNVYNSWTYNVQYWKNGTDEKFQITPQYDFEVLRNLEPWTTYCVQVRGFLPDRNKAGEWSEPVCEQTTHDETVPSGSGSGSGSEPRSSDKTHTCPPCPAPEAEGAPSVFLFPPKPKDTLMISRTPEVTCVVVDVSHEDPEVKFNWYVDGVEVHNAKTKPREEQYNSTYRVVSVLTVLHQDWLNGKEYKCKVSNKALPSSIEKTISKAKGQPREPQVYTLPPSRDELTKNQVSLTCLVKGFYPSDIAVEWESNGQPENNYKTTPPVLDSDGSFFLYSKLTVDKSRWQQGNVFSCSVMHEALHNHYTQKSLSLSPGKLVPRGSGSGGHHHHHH
Chain of CRF2-4/zcytor11-Fc soluble receptor heterodimer (Fc fusion) (chain): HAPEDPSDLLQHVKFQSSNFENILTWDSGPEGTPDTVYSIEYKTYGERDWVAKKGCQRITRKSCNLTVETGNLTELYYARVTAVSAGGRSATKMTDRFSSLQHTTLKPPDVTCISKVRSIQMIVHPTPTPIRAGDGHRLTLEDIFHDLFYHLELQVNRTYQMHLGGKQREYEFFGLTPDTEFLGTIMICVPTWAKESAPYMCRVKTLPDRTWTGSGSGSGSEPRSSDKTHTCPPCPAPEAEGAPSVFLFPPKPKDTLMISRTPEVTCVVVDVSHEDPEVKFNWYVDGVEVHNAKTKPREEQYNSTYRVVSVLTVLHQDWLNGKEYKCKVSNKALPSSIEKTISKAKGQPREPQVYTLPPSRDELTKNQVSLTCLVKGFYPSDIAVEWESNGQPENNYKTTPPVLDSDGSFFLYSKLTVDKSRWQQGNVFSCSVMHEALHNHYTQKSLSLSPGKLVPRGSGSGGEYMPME
Chain of zcytor11 and CRF2-4 receptors co-expressed on transfected BaF3 or BHK cells (human) (chain, as listed by the source limits assumed, chain 1 of 2): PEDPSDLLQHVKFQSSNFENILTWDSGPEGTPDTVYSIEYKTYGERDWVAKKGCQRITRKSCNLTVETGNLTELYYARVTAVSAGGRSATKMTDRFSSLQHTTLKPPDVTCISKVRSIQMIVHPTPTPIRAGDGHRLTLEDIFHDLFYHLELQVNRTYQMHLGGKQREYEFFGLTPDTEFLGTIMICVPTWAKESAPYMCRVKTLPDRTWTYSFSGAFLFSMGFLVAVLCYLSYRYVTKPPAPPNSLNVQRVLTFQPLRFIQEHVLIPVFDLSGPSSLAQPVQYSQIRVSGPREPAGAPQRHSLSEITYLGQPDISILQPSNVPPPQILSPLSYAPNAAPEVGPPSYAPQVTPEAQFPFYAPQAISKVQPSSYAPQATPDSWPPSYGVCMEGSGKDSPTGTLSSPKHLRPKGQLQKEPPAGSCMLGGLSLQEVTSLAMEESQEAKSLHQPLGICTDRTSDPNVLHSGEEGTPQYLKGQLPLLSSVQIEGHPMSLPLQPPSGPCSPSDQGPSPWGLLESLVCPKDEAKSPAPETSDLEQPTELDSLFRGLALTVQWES
Chain of zcytor11 and CRF2-4 receptors co-expressed on transfected BaF3 or BHK cells (human) (Q08334 20-325 limits assumed, chain 2 of 2): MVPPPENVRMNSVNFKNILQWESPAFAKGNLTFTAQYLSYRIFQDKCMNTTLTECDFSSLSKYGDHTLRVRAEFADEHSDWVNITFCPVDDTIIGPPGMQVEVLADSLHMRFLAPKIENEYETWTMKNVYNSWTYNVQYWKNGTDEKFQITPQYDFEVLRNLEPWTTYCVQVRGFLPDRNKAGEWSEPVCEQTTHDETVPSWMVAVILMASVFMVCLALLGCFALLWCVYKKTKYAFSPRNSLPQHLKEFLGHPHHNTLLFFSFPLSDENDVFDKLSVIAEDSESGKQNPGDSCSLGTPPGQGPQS

As for “CRF2-4/zcytor11-Fc soluble receptor heterodimer (Fc fusion)”, in experiment [1], the inhibition of IL-TIF-induced proliferation (Alamar Blue), concentration at which inhibition was barely detectable was found to be 1.6 ng/mL; the inhibition of IL-TIF-induced proliferation (Alamar Blue), concentration giving complete inhibition is 25 to 200 ng/mL; the inhibition of IL-TIF-induced proliferation (Alamar Blue), concentration giving partial inhibition lay in the range of 3.1 to 12.5 ng/mL.

Regarding “IL-TIF protein (human) (from UniProt Q9GZX6 34-179) (ligand)”, in experiment [2], the Alamar Blue proliferation of BaF3/CRF2-4/zcytor11 cells, fold over background was 30 fold.
